From patent publication US20220289816A1, “IMMUNOTHERAPY WITH B*07 RESTRICTED PEPTIDES AND COMBINATION OF PEPTIDES AGAINST CANCERS AND RELATED METHODS” (Immatics Biotechnologies GmbH, priority 2018, published 2022)

Target: HLA-B*07 (Homo sapiens, UniProt P01889)
Experiment: MHC binding assay (UV-ligand exchange, ELISA of stabilized MHC complexes)
Settings: peptide exchange yield on HLA-B*07, UV-ligand exchange
In short: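 Peptide–MHC complexes were made by UV-ligand exchange, in which a UV-cleavable peptide is replaced by the test peptide. Exchange yield was measured by ELISA of stabilized complexes on streptavidin-coated plates, using HRP anti-β2m detection (1 h, 37 °C), TMB substrate and absorbance at 450 nm.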

| Substance | Peptide exchange |
| --- | --- |
| 10 (SPMEAELVRRIL; listed as Homo sapiens) [compound 10] | ++++ (>75% = ++++) |
| 84 (MPMQDIKMI; listed as Homo sapiens) [compound 84] | +++ (>50 = +++) |
| 165 (RPSKEMQVTI; listed as Homo sapiens) [compound 165] | ++++ (>75% = ++++) |
| 261 (SPSTSRTPL; listed as Homo sapiens) [compound 261] | +++ (>50 = +++) |
| 28 (LPAPTSLVL; listed as Homo sapiens) [compound 28] | ++++ (>75% = ++++) |
| 133 (LPELPTTLTF; listed as Homo sapiens) [compound 133] | ++ (>20% = ++) |
| 71 (APFAPLHGGGSL; listed as Homo sapiens) [compound 71] | +++ (>50 = +++) |
| 34 (APMAPGRSP; listed as Homo sapiens) [compound 34] | +++ (>50 = +++) |
| 225 (SPIIHSIL; listed as Homo sapiens) [compound 225] | +++ (>50 = +++) |
| 69 (RPEDGRPRL; listed as Homo sapiens) [compound 69] | +++ (>50 = +++) |
| 183 (VPRRPARAL; listed as Homo sapiens) [compound 183] | +++ (>50 = +++) |
| 115 (KTKSLAQQL; listed as Homo sapiens) [compound 115] | +++ (>50 = +++) |
| 113 (KPHLDRRGAVI; listed as Homo sapiens) [compound 113] | ++++ (>75% = ++++) |
| 132 (LPRLPVGSLV; listed as Homo sapiens) [compound 132] | ++++ (>75% = ++++) |
| 154 (RPPPSRRAVL; listed as Homo sapiens) [compound 154] | +++ (>50 = +++) |
| 76 (KPKVESQAL; listed as Homo sapiens) [compound 76] | ++++ (>75% = ++++) |
| 52 (KEDNPSGHTYTL; listed as Homo sapiens) [compound 52] | +++ (>50 = +++) |
| 284 (RPSAPRGPP; listed as Homo sapiens) [compound 284] | ++++ (>75% = ++++) |
| 25 (RPQGAVGGL; listed as Homo sapiens) [compound 25] | +++ (>50 = +++) |
| 7 (RPSQLAPATL; listed as Homo sapiens) [compound 7] | +++ (>50 = +++) |
| 54 (VPSCGRSVEGL; listed as Homo sapiens) [compound 54] | +++ (>50 = +++) |
| 87 (APVGGNVTSSF; listed as Homo sapiens) [compound 87] | +++ (>50 = +++) |
| 86 (ALLLRGVTL; listed as Homo sapiens) [compound 86] | ++ (>20% = ++) |
| 244 (VPAHLVAA; listed as Homo sapiens) [compound 244] | ++ (>20% = ++) |
| 106 (APFHIDRLF; listed as Homo sapiens) [compound 106] | +++ (>50 = +++) |

| Substance | Peptide exchange |
| --- | --- |
| 286 (APARPAAAF; listed as Homo sapiens) [compound 286] | ++++ (>75% = ++++) |
| 258 (SVIGPNSRL; listed as Homo sapiens) [compound 258] | ++ (>20% = ++) |
| 96 (QPSLVQAIF; listed as Homo sapiens) [compound 96] | ++++ (>75% = ++++) |
| 18 (MALSVLRLAL; listed as Homo sapiens) [compound 18] | ++ (>20% = ++) |
| 192 (IPFADVKSF; listed as Homo sapiens) [compound 192] | ++ (>20% = ++) |
| 213 (RPYQDAPVA; listed as Homo sapiens) [compound 213] | ++++ (>75% = ++++) |
| 46 (QPISGNPVTL; listed as Homo sapiens) [compound 46] | +++ (>50 = +++) |
| 185 (RPVLTASSF; listed as Homo sapiens) [compound 185] | ++++ (>75% = ++++) |
| 214 (LPLKFFPII; listed as Homo sapiens) [compound 214] | + (>10% = +) |
| 264 (APRPGNWIL; listed as Homo sapiens) [compound 264] | +++ (>50 = +++) |
| 186 (VPLPAGGGTVLT; listed as Homo sapiens) [compound 186] | + (>10% = +) |
| 139 (LVILQHQAM; listed as Homo sapiens) [compound 139] | +++ (>50 = +++) |
| 208 (RNRQVATAL; listed as Homo sapiens) [compound 208] | +++ (>50 = +++) |
| 152 (SSASFSSELFRH; listed as Homo sapiens) [compound 152] | +++ (>50 = +++) |
| 73 (LPVSSPVTL; listed as Homo sapiens) [compound 73] | ++++ (>75% = ++++) |
| 105 (RPRYETGVCA; listed as Homo sapiens) [compound 105] | ++++ (>75% = ++++) |
| 235 (AQNPAGTAL; listed as Homo sapiens) [compound 235] | + (>10% = +) |
| 37 (LPPPRALTL; listed as Homo sapiens) [compound 37] | +++ (>50 = +++) |
| 66 (LPMTVISVL; listed as Homo sapiens) [compound 66] | ++++ (>75% = ++++) |
| 93 (SVAIAHGVF; listed as Homo sapiens) [compound 93] | ++++ (>75% = ++++) |
| 248 (KPYDGIPAS; listed as Homo sapiens) [compound 248] | +++ (>50 = +++) |
| 259 (VPMPGVQAV; listed as Homo sapiens) [compound 259] | ++++ (>75% = ++++) |
| 63 (FPHMATTAF; listed as Homo sapiens) [compound 63] | +++ (>50 = +++) |
| 265 (FPRKPYEGRV; listed as Homo sapiens) [compound 265] | +++ (>50 = +++) |
| 270 (SPRGTTSTL; listed as Homo sapiens) [compound 270] | +++ (>50 = +++) |

Next, values leading:

| Peptide exchange | Substance |
| --- | --- |
| +++ (>50 = +++) | 312 (SPSLQSSRESL; listed as Homo sapiens) [compound 312] |
| +++ (>50 = +++) | 381 (APRPRLLLL; listed as Homo sapiens) [compound 381] |
| +++ (>50 = +++) | 351 (SPYADIIPSA; listed as Homo sapiens) [compound 351] |
| ++++ (>75% = ++++) | 367 (APQVHIFSL; listed as Homo sapiens) [compound 367] |
| ++++ (>75% = ++++) | 324 (LPAPLRISL; listed as Homo sapiens) [compound 324] |
| +++ (>50 = +++) | 456 (VPVSHPVLTL; listed as Homo sapiens) [compound 456] |
| ++++ (>75% = ++++) | 469 (LPLDTRTSI; listed as Homo sapiens) [compound 469] |
| ++ (>20% = ++) | 472 (LPMPAITWY; listed as Homo sapiens) [compound 472] |
| ++ (>20% = ++) | 476 (EPNPVEEIF; listed as Homo sapiens) [compound 476] |
| ++++ (>75% = ++++) | 354 (APAKDARASL; listed as Homo sapiens) [compound 354] |
| ++++ (>75% = ++++) | 463 (LPTDLFNSVM; listed as Homo sapiens) [compound 463] |
| ++++ (>75% = ++++) | 323 (TPHGITDIL; listed as Homo sapiens) [compound 323] |
| ++++ (>75% = ++++) | 459 (SPAPWRPWI; listed as Homo sapiens) [compound 459] |
| ++++ (>75% = ++++) | 363 (KPRTPFTTA; listed as Homo sapiens) [compound 363] |
| +++ (>50 = +++) | 335 (VPPQNPRPSL; listed as Homo sapiens) [compound 335] |
| +++ (>50 = +++) | 343 (RPRPPKVLGL; listed as Homo sapiens) [compound 343] |

| Peptide exchange | Substance |
| --- | --- |
| ++++ (>75% = ++++) | 482 (QPSLKKIIL; listed as Homo sapiens) [compound 482] |
| ++++ (>75% = ++++) | 287 (SPIPRPLFL; listed as Homo sapiens) [compound 287] |
| +++ (>50 = +++) | 488 (LPLGGLPLLI; listed as Homo sapiens) [compound 488] |
| +++ (>50 = +++) | 328 (LPLHRGDLVI; listed as Homo sapiens) [compound 328] |
| ++++ (>75% = ++++) | 378 (SPRQPRLDF; listed as Homo sapiens) [compound 378] |
| + (>10% = +) | 450 (SAAARALLP; listed as Homo sapiens) [compound 450] |
| +++ (>50 = +++) | 371 (APRSPGQVTPRGL; listed as Homo sapiens) [compound 371] |
| ++++ (>75% = ++++) | 477 (NPVPVITWYKDNRL; listed as Homo sapiens) [compound 477] |
| +++ (>50 = +++) | 289 (LPYEKVSRL; listed as Homo sapiens) [compound 289] |
| +++ (>50 = +++) | 307 (RPHQKGWLSI; listed as Homo sapiens) [compound 307] |
| +++ (>50 = +++) | 292 (LPMTHRLQL; listed as Homo sapiens) [compound 292] |
| ++++ (>75% = ++++) | 327 (GPRTTQSSVL; listed as Homo sapiens) [compound 327] |
| ++++ (>75% = ++++) | 293 (FPYDKPLIM; listed as Homo sapiens) [compound 293] |
| + (>10% = +) | 493 (LPLQQYKLV; listed as Homo sapiens) [compound 493] |
| ++++ (>75% = ++++) | 320 (APMHIDRNIL; listed as Homo sapiens) [compound 320] |
